Laboratory results as given in US20240110004 (published 2024).
Where no end group is shown, it is not given here.

Molecular target: VCP (UniProt P55072)
Assay: BLI, VCP immobilized on anti-HIS sensor, analyte in Tris pH 8.4, multivalent

VCP, sequence (P55072 2-806): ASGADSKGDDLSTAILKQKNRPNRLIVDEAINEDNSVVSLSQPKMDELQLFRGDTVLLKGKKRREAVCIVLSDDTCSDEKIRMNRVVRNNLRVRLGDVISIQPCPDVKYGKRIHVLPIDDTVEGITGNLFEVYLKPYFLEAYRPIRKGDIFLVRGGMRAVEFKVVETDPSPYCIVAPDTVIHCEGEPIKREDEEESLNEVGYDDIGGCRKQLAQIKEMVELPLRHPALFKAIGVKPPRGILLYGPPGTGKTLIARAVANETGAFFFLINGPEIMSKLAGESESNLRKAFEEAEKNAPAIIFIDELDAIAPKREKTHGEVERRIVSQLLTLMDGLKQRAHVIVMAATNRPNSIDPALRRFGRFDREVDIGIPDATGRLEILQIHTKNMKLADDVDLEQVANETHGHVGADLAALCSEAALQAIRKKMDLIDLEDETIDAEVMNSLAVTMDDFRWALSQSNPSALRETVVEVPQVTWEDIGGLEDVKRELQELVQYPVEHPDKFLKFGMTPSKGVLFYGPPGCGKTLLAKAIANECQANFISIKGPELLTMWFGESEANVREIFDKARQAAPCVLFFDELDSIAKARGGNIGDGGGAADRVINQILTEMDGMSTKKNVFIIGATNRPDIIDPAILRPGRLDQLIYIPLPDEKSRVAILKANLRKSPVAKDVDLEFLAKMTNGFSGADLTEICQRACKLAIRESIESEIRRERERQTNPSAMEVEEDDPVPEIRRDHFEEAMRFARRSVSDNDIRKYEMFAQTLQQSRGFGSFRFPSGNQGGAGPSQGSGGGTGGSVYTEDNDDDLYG

HVLVMSATRR (not fully specified (N-terminus); also: multivalent polymer conjugate) [P1]
Kd: 0.092 µM
